Assay results: patent US7745575B1 (Cellpep Pharma Inc., priority 2004, dated 2010)
Where a chain is given by its changes, count along the chain named. Values joined by “and” are separate entries in the source; they are usually repeats but may differ in a detail not shown here. Identical values can stand only once. “Also recorded” adds a separate entry of the source. Bridge positions count the residues as written; N and C are the ends. Ends that are not written are not given here. Peptide text beside a SMILES is read from it. * marks the point of attachment. Pentanoyl = CCCCC(=O)*

Experiments:
mKv1.3 [1] = target: mKv1.3 (Mus musculus, UniProt P16390); assay: patch-clamp whole-cell recording, K+ current block; assay type: cell-based
Experimental: Electrophysiological experiments were carried out at 22-24° C. using the patch-clamp whole-cell recording mode. Cells were bathed with mammalian Ringer's solution (in mM): 160 NaCl, 4.5 KCl, 2 CaCl2, 1 MgCl2, and 10 HEPES (pH 7.4 with NaOH), with an osmolarity of 290-320 mOsm. […] A syringe-driven perfusion device was used to exchange the external recording bath solution. Two internal pipette solutions were used, one for measuring voltage-gated K^+ currents that contained (in mM): 155 KF, 2 MgCl2, 10 HEPES, and 10 EGTA (pH 7.2 with KOH), with an osmolarity of 290-320 mOsm and another for measuring Ca^2+-activated K^+ currents that contained (in mM): 135 K-aspartate, 8.7 CaCl2, 2 MgCl2, 10 EGTA, 10 HEPES (pH 7.2 with KOH), with an osmolarity of 290-320 mOsm. A free [Ca^2+]i of 1 μM was calculated. All currents through voltage-gated K^+ channels were elicited by 200 ms depolarising voltage steps from −80 to +40 mV. Potassium currents through KCa1.1, KCa2.1 and KCa3.1 were elicited by 1 μM internal [Ca^2+]i and 400 ms voltage ramps from −120 to 0 mV (for KCa3.1 channel and KCa1.1 channel) and from −120 to +40 mV (for KCa2.1 channel). Electrodes were pulled from glass capillaries (Science Products, Germany), and fire-polished to resistances of 2.5-5 MΩ. Membrane currents were measured with an EPC-9 or EPC-10 patch-clamp amplifier (HEKA Elektronik, Lambrecht, Germany) interfaced to a Macintosh computer running acquisition and analysis software (Pulse and PulseFit). When voltage-gated K^+ currents were measured, the capacitive and leak currents were subtracted using a P/10 procedure. Series resistance compensation (>80%) was used for currents above 2 nA. The holding potential was −80 mV in all experiments.

[2] = toxicity in vivo, LD50 after intracerebroventricular injection; conditions: mouse, icv or intrathecal, 20 g C57/BL6 mice
Experimental: Groups of six to eight mice per dose were injected with 5 μl peptide solution containing 0.1% (w/v) bovine serum albumin and 0.9% (w/v) NaCl. The LD50 values are set out in Table 5.

[3] = system: Lewis rats immunized with spinal cord homogenate; assay: treatment of chronic relapsing EAE, osmotic pump IP; assay type: in vivo; conditions: MTx 50 nM
Experimental: Each rat received 200 μl of emulsion sc, divided in the rear footpads, on day 0. Eight days later, as their body weight decreased, a precursor sign for clinical EAE, an osmotic pump was implanted IP. The pump delivered drugs at 1 μl/h for 8 days. They were filled with the peptide blockers, dissolved in Na Cl 0.15 M containing 2% Lewis serum, as vehicle.
Clinical evaluation. The severity of the disease was scored on a scale of 0 to 6, with 0.5 points for intermediate clinical findings (0: no clinical signs; 1.0: limp tail; 2.0: mild paraparesis and ataxia; 3.0: moderate paraparesis; 4.0: complete hind limb paralysis; 5.0: paralysis+incontinence; 5.5: tetraplegia; 6.0: moribund or death). Rats were weighed every day. Rats showing no clinical signs of EAE and no weight loss were excluded from the studies. The beneficial effects of K^+ blockers on EAE were evaluated by a reduction in clinical severity and in duration of the disease and in number of relapses compared with those of rats treated with the vehicle only, 0.15 M NaCl.
Data analysis. Statistical analysis was conducted using the Mann-Whitney U test. Mean differences between groups were considered significant at values of P<0.05.

hKv1.2 = hKv1.2 (human (only by the printed prefix h), UniProt P16389); assay: cell-based or functional assay
mKv1.3 [4] = target: mKv1.3 (mouse (only by the printed prefix m), UniProt P16390); assay: cell-based or functional assay
mKv1.1 = mKv1.1 (mouse (only by the printed prefix m), UniProt P16388); assay: cell-based or functional assay
hIK1 = hIK1 (human (only by the printed prefix h), UniProt O15554); assay: cell-based or functional assay
hKv3.2 = target: T1, hKv3.2 (human (only by the printed prefix h), UniProt Q96PR1); assay: cell-based or functional assay
T1 sequence: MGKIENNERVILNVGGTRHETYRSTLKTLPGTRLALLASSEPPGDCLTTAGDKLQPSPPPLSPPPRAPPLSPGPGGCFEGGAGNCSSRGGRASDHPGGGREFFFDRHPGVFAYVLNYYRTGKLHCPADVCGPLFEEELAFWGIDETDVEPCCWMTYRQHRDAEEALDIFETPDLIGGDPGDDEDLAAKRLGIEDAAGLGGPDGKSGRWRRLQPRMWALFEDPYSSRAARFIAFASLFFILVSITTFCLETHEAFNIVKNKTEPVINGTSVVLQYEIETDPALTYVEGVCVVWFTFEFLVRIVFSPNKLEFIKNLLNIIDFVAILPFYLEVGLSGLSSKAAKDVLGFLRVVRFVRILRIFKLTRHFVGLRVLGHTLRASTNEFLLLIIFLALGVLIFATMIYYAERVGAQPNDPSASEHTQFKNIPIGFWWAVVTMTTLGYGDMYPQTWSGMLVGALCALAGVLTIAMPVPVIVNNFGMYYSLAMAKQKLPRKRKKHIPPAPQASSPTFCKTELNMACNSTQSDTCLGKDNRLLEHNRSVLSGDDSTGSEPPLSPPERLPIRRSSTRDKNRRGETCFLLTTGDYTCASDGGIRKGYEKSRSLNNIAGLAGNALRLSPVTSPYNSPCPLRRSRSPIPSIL

Sequence of mKv1.3 (Mus musculus, UniProt P16390) (P16390 whole entry, the tested form may be a part): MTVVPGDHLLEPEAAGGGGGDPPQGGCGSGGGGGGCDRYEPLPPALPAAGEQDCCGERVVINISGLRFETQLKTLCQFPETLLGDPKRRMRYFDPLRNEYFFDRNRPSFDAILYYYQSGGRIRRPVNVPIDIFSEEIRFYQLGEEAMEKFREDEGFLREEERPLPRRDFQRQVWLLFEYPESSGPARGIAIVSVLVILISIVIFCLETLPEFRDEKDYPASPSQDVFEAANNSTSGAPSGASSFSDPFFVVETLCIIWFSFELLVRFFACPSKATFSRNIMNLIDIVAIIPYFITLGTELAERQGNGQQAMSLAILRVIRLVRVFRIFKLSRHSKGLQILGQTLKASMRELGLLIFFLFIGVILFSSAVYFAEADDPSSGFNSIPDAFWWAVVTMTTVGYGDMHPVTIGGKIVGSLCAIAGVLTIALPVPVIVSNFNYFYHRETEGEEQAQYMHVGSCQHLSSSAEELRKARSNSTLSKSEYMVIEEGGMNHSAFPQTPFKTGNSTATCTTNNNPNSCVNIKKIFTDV

With `CC[C@H](C)[C@@H]1NC(=O)[C@H](CCCCN)NC(=O)[C@@H](NC(=O)[C@H](CCCCN)NC(=O)[C@@H](NC(=O)[C@H](CC(N)=O)NC(=O)[C@@H](NC(=O)[C@@H](NC(=O)[C@@H](NC(=O)CN)C(C)C)[C@@H](C)CC)[C@@H](C)CC)C(C)C)CSSC[C@@H]2NC(=O)[C@H](CCCCN)NC(=O)CNC(=O)[C@H](Cc3ccccc3)NC(=O)[C@H](CCCNC(=N)N)NC(=O)[C@H](CCSC)NC(=O)CNC(=O)[C@H](C)NC(=O)[C@H](CCCCN)NC(=O)[C@H](CCCCN)NC(=O)[C@@H]3CSSC[C@@H](C(=O)N[C@H](C(=O)N4CCC[C@H]4C(=O)N[C@@H](CCCCN)C(=O)O)[C@@H](C)O)NC(=O)[C@H](Cc4c[nH]cn4)NC(=O)[C@H](CSSC[C@H](NC(=O)[C@H](CCC(N)=O)NC(=O)[C@H](CCCNC(=N)N)NC(=O)[C@H](CO)NC1=O)C(=O)N[C@@H](CC(C)C)C(=O)N[C@@H](CCCCN)C(=O)N1CCC[C@H]1C(=O)N3)NC(=O)[C@H](CCCCN)NC(=O)CNC(=O)[C@H](CC(N)=O)NC(=O)[C@H](CCSC)NC2=O` [[K^16]-OsK1] (H-GVIINVKCKISRQCLKPCKKAGMRFGKCMNGKCHCTPK-OH; disulfide 8-28, 14-33, 18-35) the IC50 (mKv1.3 [1]) was 0.067 ± 0.006 nM and the LD50 [2] was 3 µg/kg.

In the case of “VSCTGSKDCYAPCRKQTGCPNA-KCINK-SCKCYGC [MTx]”, the Incid [3] is reported as 100%, the “Max Clin Sc, Mean ± SD” value ([3]; group mean, scale 0 to 6) is reported as 2.2 ± 1.5 and the “Duration (days), first episode of EAE” value ([3]; individual rats) is reported as “chronic (3×) and 11 days”. The “Onset (day), first episode of EAE” value ([3]; individual rats) was “d11 day; also recorded: d8 day; also recorded: d7 day” and the “Max Clin Sc” value ([3]; individual rats, scale 0 to 6) was 4 and 1 (2×) and 3.

In the case of `CCCCC(=O)NCC(=O)N[C@H](C(=O)N[C@H](C(=O)N[C@H](C(=O)N[C@@H](CC(N)=O)C(=O)N[C@H](C(=O)N[C@@H](CCCCN)C(=O)N[C@H]1CSSC[C@@H]2NC(=O)[C@H](CCCCN)NC(=O)CNC(=O)[C@H](Cc3ccccc3)NC(=O)[C@H](CCCNC(=N)N)NC(=O)[C@H](CCSC)NC(=O)CNC(=O)[C@H](C)NC(=O)[C@H](CC(=O)O)NC(=O)[C@H](CCCCN)NC(=O)[C@@H]3CSSC[C@@H](C(=O)N[C@H](C(=O)N4CCC[C@H]4C(=O)N[C@@H](CCCCN)C(=O)O)[C@@H](C)O)NC(=O)[C@H](Cc4c[nH]cn4)NC(=O)[C@H](CSSC[C@H](NC(=O)[C@H](CCC(N)=O)NC(=O)[C@H](CCCNC(=N)N)NC(=O)[C@H](CO)NC(=O)[C@H]([C@@H](C)CC)NC(=O)[C@H](CCCCN)NC1=O)C(=O)N[C@@H](CC(C)C)C(=O)N[C@@H](CCCCN)C(=O)N1CCC[C@H]1C(=O)N3)NC(=O)[C@H](CCCCN)NC(=O)CNC(=O)[C@H](CC(N)=O)NC(=O)[C@H](CCSC)NC2=O)C(C)C)[C@@H](C)CC)[C@@H](C)CC)C(C)C` (Pentanoyl-GVIINVKCKISRQCLKPCKDAGMRFGKCMNGKCHCTPK-OH; disulfide 8-28, 14-33, 18-35), the LD50 [2] is reported as 16 µg/kg.

B1: [K^16]-OsK1 (peptide)
peptide: GVIINVKCKISRQCLKPCKKAGMRFGKCMNGKCHCTPK
modifications: ends and bridges not checked; cysteine pairing not given here
For B1, the ID50 (hKv1.2) was 5.23 nM, the ID50 (mKv1.3 [4]) was 0.067 nM and the ID50 (mKv1.1) was 0.63 nM. The ID50 (hIK1) was 151 nM.

B2: [D^20]-OsK1 (peptide)
peptide: B1 peptide with K16E, K20D
modifications: ends and bridges not checked; cysteine pairing not given here
In the case of B2, the ID50 (hKv1.2) is reported as 77.8 nM, the ID50 (mKv1.3 [4]) is reported as 0.037 nM and the ID50 (mKv1.1) is reported as 2.95 nM. It also gave an ID50 (hIK1) of 716 nM.

B3: OsK1 (peptide)
peptide: B1 peptide with K16E
For B3, the ID50 (hKv3.2) was > 1000 nM.

B4: Ac-OsK1-NH2 (peptide)
peptide: Ac-GVIINVKCKISRQCLEPCKKAGMRFGKCMNGKCHCTPK-NH2
modifications: ends and bridges not checked
For B4, the ID50 (hKv3.2) was > 1000 nM and the ID50 (hKv1.2) was ~1300 nM.

B5: OsK1-NH2 (peptide)
peptide: GVIINVKCKISRQCLEPCKKAGMRFGKCMNGKCHCTPK-NH2
modifications: ends and bridges not checked
For B5, the ID50 (hKv3.2) was > 1000 nM and the ID50 (hKv1.2) was 26 nM.
